Assay results reported in US20120301469A1 (Ablynx, published 2012).
Where a chain is given by its changes, count along the chain named.

B1: Nanobody 1A2 (VHH)
VHH: EVQLVESGGGLVQAGGSLRLSCAASERTFSYYAMGWFRQAPGKEREFVATISRSGEWIYYKDAMKGRFTISRDNANNAVYLQMNSLQPEDTAIYYCAADSLGGFRSASDYYNTNTYAYWGQGTQVTVSS
notes: also called PMP1A2; PRSV1A2
B2: Nanobody 13B4 (VHH)
VHH: EVQLVESGGGLVQAGGSLRLSCAASGFTFDDYAIGWFRQAPGKEREAVSCISSSDGSTYYADSVKGRFTISSDNAKNMVYLQMNSLKPEDTAVYYCAADLLRTAVGCLDYRGTYYPRTTMDYRGKGTLVTVSS
notes: also called PMP13B4; PRSV13B4
B3: Nanobody 1E4 (VHH)
VHH: EVQLVESGGGLVQAGGSLRLSCEASGRTFSSYGMGWFRQAPGKEREFVAAVSRLSGPRTVYADSVKGRFTISRDNAENTVYLQMNSLKPEDTAVYTCAAELTNRNPGAYYYTWAYDYWGQGTQVTVSS
notes: also called PMP1E4; PRSV1E4
B4: Nanobody 20B2 (VHH)
VHH: B3 VHH with G33D, S52T, L54W, P57A, T59G, Y81H, E100D, L101S, P106S, Y109V
notes: also called PMP20B2; PR5V20B2
B5: Nanobody 20C1 (VHH)
VHH: EVQLVESGGGLVQAGGSLRLSCAASGRTFSSFAMGWFRQAPGKEREFVAAISWSGGSTYYADSVKGRFTISGDNAKNTMYLQMNSLKPEDTAVYYCAADSEILNSGAYYYPWAYVYWGQGTQVTVSS
notes: also called PMP20C1; PRSV20C1
B6: Nanobody 8B10 (VHH)
VHH: EVQLVESGGGLVQAGASLRLSCAASGLAFSRYAMGWFRQAPGKERESVAAISSSGDNIYYADSVKGQFTMSRDNAKSSVYLQMINLKPEDTAVYYCAATSPLFVASDYFEASRYGYWGQGTQVTVSS
notes: also called PMP8B10; PRSV8B10
B7: Nanobody 13A1 (VHH)
VHH: EVQLVESGGGLVQPGGSLRLSCAASGLTLDYYALGWFRQAPGKEREGVSCISSADHSTTYADSVKGRFTISWDNAKNTVYLQMNSLKPEDTAVYYCAADPALGCYSGNYYPRYDYWGQGTQVTVSS
notes: also called PMP13A1; PRSV13A1
B8: Nanobody 19E2 (VHH)
VHH: B7 VHH with A54S, S57T, A61T, V79L, N108S, Y115F
notes: also called PMP19E2; PRSV19E2
B9: Nanobody 23E5 (VHH)
VHH: EVQLMESGGGLVQAGGSLRLSCAASGGTFSSYAMGWFRQAPGEERDFVAAIGWSGNSPYYAQFVKGRFTISRDNAKNTVHLQMNSLKPEDTAVYYCAAAHNTMGSDYEGYDYWGQGTQVTVSS
notes: also called PMP23E5; PRSV23E5
B10: Nanobody 8A1 (VHH)
VHH: EVQLVESGGGLVQPGGSLRVSCAASGFTFNDYIMGWFRQAPGKERMFIAAISGTGTIKYYGDLVRGRFTISRDNAKNTVYLRIDSLNPEDTAVYYCAARQDYGLGYRESHEYDYWGQGTQVTVSS
notes: also called PMP8A1; PRSV8A1
B11: Nanobody 13D1 (VHH)
VHH: EVQLVESGGGLVQPGGSLRLSCATSGFTEDYYVIGWFRQAPGKEREGVSCMSSSGDSTTYADSVKGRFTISRDNAKNMVYLQMTSLKPEDTAVYYCAADFALGCYSGSYYPRYDYWGQGTQVTVSS
notes: also called PMP13D1; PRSV13D1
B12: Nanobody 1A6 (VHH)
VHH: EVQLVESGGGLVQAGGSLRLSCAASGRTFSSYAMGWFRQAPGKEREFVAAIWWSGGSTYYADSVKGRFTMSRDNAKNTVYLEMNNLKPEDTAVYYCAADTDSSNSGSYLYTWAYDYWGQGTQVTVSS
notes: also called PMP1A6; PRSV1A6
B13: Nanobody 13E12 (VHH)
VHH: EVQLVESGGGLVQAGGSLRLSCAASGRTFSRYIMGWFRQAPGKEREFVGAISRSGDITSFADFVKGRFTMSRDNAKNTLYLQMNSLEPEDTAVYSCAANSDTYYIYSDIVVPERYDYWGQGTQVTVSS
notes: also called PMP13E12; PRSV13E12
B14: Nanobody 13C1 (VHH)
VHH: EVQLVESGGGLVQPGGSLRLSCEASGFTWDYYVIGWFRQAPGKEREGLSCISSDGSTTYADSVKGRFTISRDNAKNTVYLQMNSLEPEDTAVYYCATDPALGCYSGSYYPRYDYWGQGTQVTVSS
notes: also called PMP13C1; PRSV13C1
B15: Nanobody 1B2 (VHH)
VHH: EVQLVESGGGLVQAGGSLRLSCAASGPTFSADTMGWFRQAPGKEREFVATIPWSGGIAYYSDSVKGRFTMSRDNAKNTVDLQMNSLKPEDTALYYCAGSSRIYIYSDSLSERSYDYWGQGTQVTVSS
notes: c-myc/His6-tagged; also called PMP1B2; PRSV1B2

How the values were obtained:
[1] = biological target: T1, protein F of hRSV strain B-1 (on RSV B-1-infected Hep2 cells and on virus) (human respiratory syncytial virus, …, UniProt P13843 26-574); assay: cell-based or functional assay
[2] = biological target: T2, hRSV FTM-NN (membrane anchorless form of the Long fusion protein, 70 kDa) (human respiratory syncytial virus, …, UniProt P12568 26-524); assay: ELISA on immobilized FTM-NN, periplasmic extract 1:10
T2 construct: also called FTM-NN (Long); hRSV FTM-protein

[3] = biological target: T1, protein F of hRSV strain B-1 (on RSV …); assay: cell ELISA on RSV B-1-infected Hep2 cells, periplasmic extract 1:50
[4] = biological target: T2, hRSV FTM-NN (membrane anchorless form …); assay: competition ELISA on FTM-NN, competitor 101F Fab, purified Nanobody
[5] = biological target: T1, protein F of hRSV strain B-1 (on RSV …); assay: cell ELISA on RSV B-1-infected Hep2 cells, periplasmic extract 1:200
[6] = biological target: T1, protein F of hRSV strain B-1 (on RSV …); assay: cell-based or functional assay; remark: listed apart in the source
[7] = biological target: protein F of hRSV strain Long, on virus (inactivated hRSV Long, Hytest #8RSV79; RSV Long LM-2, ATCC VR-26) (human respiratory syncytial virus, …, UniProt P12568 26-574); assay: cell-based or functional assay
[8] = biological target: T2, hRSV FTM-NN (membrane anchorless form …); assay: SPR (Biacore), FTM-NN amine-coupled on CM5 chip, 1:1 Langmuir fit

Row | Binder | Neutralization B-1 IC50 [1] | Binding Long 1:10 PE (Fold blanc) [2] | Binding Hep2-B-1 (% control) 1:50 PE [3] | IC50 [4] | Binding Hep2-B-1 (% control) 1:200 PE [5] | micro-neutralization of RSV B-1 [6] | Neutralization Long IC50 [7] | Kd [8] | koff [8] | kon [8]
1 | B1 | 13700 nM | 4 fold blanc | 86 % control | 2.9 nM | 66 % control | – | – | – | – | –
2 | B2 | > 15000 nM | 2.7 fold blanc | 75 % control | 3.69 nM | 56 % control | – | – | – | – | –
3 | B3 | > 10000 nM | – | 55 % control | – | 55 % control | > 10 µM | – | – | – | –
4 | B4 | > 10000 nM | 3 fold blanc | 32 % control | – | 32 % control | > 10 µM | 1760 nM | – | – | –
5 | B5 | > 10000 nM | 2.7 fold blanc | 37 % control | – | 35 % control | > 10 µM | 5290 nM | – | – | –
6 | B6 | > 15000 nM | – | 94 % control | – | 84 % control | – | – | – | – | –
7 | B7 | 6160 nM | 2.9 fold blanc | 84 % control | 4.23 nM | 65 % control | – | – | 0.61 nM | 0.00035 s⁻¹ | 570000 M⁻¹ s⁻¹
8 | B8 | 4550 nM | 3.5 fold blanc | 87 % control | 2.93 nM | 58 % control | – | – | 0.52 nM | 0.00024 s⁻¹ | 460000 M⁻¹ s⁻¹
9 | B9 | > 15000 nM | 3.4 fold blanc | 103 % control | 1.73 nM | 82 % control | – | – | 7.9 nM | 0.0013 s⁻¹ | 160000 M⁻¹ s⁻¹
10 | B10 | 12200 nM | 3.7 fold blanc | 98 % control | 2.81 nM | 92 % control | – | – | – | – | –
11 | B11 | 5850 nM | 3.1 fold blanc | 93 % control | 3.37 nM | 75 % control | – | – | – | – | –
12 | B12 | > 10000 nM | 4.2 fold blanc | 57 % control | – | 39 % control | > 10 µM | 4500 nM | – | – | –
13 | B13 | 12300 nM | 3.7 fold blanc | 97 % control | 3.52 nM | 75 % control | – | – | 1.5 nM | 0.00016 s⁻¹ | 110000 M⁻¹ s⁻¹
14 | B14 | 11400 nM | 3 fold blanc | 104 % control | 3.83 nM | 86 % control | – | – | – | – | –
15 | B15 | 7380 nM | 3.8 fold blanc | 88 % control | 2.91 nM | 85 % control | – | – | 0.44 nM | 0.00017 s⁻¹ | 380000 M⁻¹ s⁻¹
